Consider 3 compounds from article PMC5626966, “Molecular and Physiological Logics of the Pyruvate-Induced Response of a Novel Transporter in Bacillus subtilis” (mBio, 2017).

The target in data set [1] is T1, PftAB (YsbAB) pyruvate-facilitated transporter (Bacillus subtilis, UniProt P94515+P94516).
T1 construct: gene lrgA; full-length untagged pftAB in B. subtilis cells (WT, delta-pftAB, IPTG-inducible Phs-pftAB strains)
The experiment in a line: transport in growing cells, extracellular pyruvate by HPLC, fit of facilitated transport model. Conditions: B. subtilis cells, M9 minimal medium; model estimate of facilitated transport (Text S1, Table S2). In kind it is cell-based.

For data set [2], the target named is T2, LytT (His6-LytT) (Bacillus subtilis (168?)) (UniProt P94514).
T2 sequence: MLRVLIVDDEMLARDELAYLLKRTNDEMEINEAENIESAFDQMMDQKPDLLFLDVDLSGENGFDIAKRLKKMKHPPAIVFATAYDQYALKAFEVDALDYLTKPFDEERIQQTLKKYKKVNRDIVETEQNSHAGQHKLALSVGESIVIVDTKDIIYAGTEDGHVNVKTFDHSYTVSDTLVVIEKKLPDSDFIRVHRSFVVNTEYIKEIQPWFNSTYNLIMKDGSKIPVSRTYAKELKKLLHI
The experiment in a line: EMSA. To be noted: EMSA: LytT with 50 ng DNA and 50 µg/ml poly(dI-dC); CcpA with 10 ng DNA and 400 µg/ml salmon sperm DNA; 6% or 8% native acrylamide gel in TAE; binding buffer …. A general note: In EMSA bound probe runs differently from free probe, usually more slowly.

T1 sequence (P94515 whole entry): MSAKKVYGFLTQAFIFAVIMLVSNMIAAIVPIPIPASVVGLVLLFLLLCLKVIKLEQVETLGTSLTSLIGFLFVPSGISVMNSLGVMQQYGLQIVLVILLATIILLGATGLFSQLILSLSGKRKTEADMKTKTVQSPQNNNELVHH
T1 sequence (P94516 whole entry): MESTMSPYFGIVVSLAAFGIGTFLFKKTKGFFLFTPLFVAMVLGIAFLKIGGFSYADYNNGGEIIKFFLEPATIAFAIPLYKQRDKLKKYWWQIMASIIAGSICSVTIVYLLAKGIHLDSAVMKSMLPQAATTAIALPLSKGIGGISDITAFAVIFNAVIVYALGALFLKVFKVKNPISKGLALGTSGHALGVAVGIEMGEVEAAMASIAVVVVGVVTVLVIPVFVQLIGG

On to `CC(=O)C(=O)O` [pyruvate], for which the “Km (apparent affinity constant)” value in data set [1] is listed as ~ 1.0 ± 0.1 mmol ⋅ liter^−1. Regarding “CCATGGTTTAATTCAACGTATAATCTGATCATGAAAGACGGATCGAAAATACCGGTCAGCCGGACATATGCGAAGGAATTGAAAAAGCTGCTCCATATTTGATGGGCGGCTTTTTGCATTTCAGCCATTTGATTCTGCAACTCAGACCCGCTATACGGCATGTTATCTTGTAAGCGCTTTATAACAGGGAATTCTTATTTATAATGAGGGTACCAAAGAGAAAGAGGTGAAGAAAATGAGTGCTAAAAAAGTGTACG (double strand) [PpftAB reporter strain fragment 267 bp]”, in data set [2], the binding result was “binds”. For the compound “CCATGGTTTAATTCAACGTATAATCTGATCATGAAAGACGGATCGAAAATACCGGTCAGCCGGACATATGCGAAGGAATTGAAAAAGCTGCTCCATATTTGATGGGCGGCTTTTTGCATTTCAGCCATTTGATTCTGCAACTCAGACCCGCTATACGGCATGTTATCTTGTAAGCGCTTTATAACAGGGAATTCTTATTTATAATGAGGGTACCAAAGAGAAAGAGGTGAAGAAAATGAGTGCTAAAAAAGTGTACG (double strand) [PpftAB 257 bp]”, the binding entry in data set [2] was “binds”.
